Results from the supplement of paper PMC7877785.
± gives the uncertainty stated by the source.

Test: self-splicing fitness, log relative to wild type (ln ratio); higher = more splicing; Tetrahymena group I intron in knt gene, E. coli kanamycin selection, DiMSum; sequences stand for … in CUCUCU…GGAGGGAAAAGUUAUCAGGCAUGCACCUGGUAGCUAGUCUUUAAACCAAUAGAUUGCAUCGGUUUAAAAGGCAAGACCGUCAAAUUGCGGGAAAGGGGUCAACAGCCGUUCAGUACCAAGUCUCAGGGGAAACUUUGAGAUGGCCUUGCAAAGGGUAUGGUAAUAAGCUGACGGACAUGGUCCUAACCACGCAGCCAAGUCCUAAGUCAACAGAUCUUCUGUUGAUAUGGAUGCAGUUCACAGACUAAAUGUCGGUCGGGGAAGAUGUAUUCUUCUCAUAAGAUAUAGUCGGACCUCUCCUUAAUGGGAGCUAGCGGAUGAAGUGAUGCAACACUGGAGCCGCUGGGAACUAAUUUGUAUGCGAAAGUAUAUUGAUUAGUUUUGGAGUACUCGUGGUCG
In short: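 Six replicate transformations of E. coli BL21(DE3) with a pET-22b(+) library were grown overnight at 37°C or 30°C. The library randomised all eight P1ex-region intron nucleotides, the intron lying in the knt kanamycin-resistance gene, and plates were LB agar with or without 25 μg/mL kanamycin plus 100 μg/mL carbenicillin, 50 μM IPTG and 0.2% rhamnose. Pooled colonies were amplicon-sequenced on an Illumina HiSeq 2500, and fitness is the DiMSum error-weighted combination of wild-type-normalised replicate fold changes, kanamycin versus none.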

| Sequence | self-splicing fitness (ln) (30 °C) | self-splicing fitness (ln) (37 °C) |
| --- | --- | --- |
| AUUAAGCAAUAUUACGGGGU | -4.11 ± 0.24 | -2.83 ± 0.2 |
| ACUGAGCAAUAUUACGUUCG | -2.2 ± 0.15 | -0.355 ± 0.12 |
| GAGGAGCAAUAUUACGGCCC | -0.89 ± 0.29 | -0.616 ± 0.49 |
| GAUAAGCAAUAUUACGGCAU | -0.333 ± 0.06 | 0.188 ± 0.085 |
| CAUAAGCAAUAUUACGGUCA | -2.41 ± 0.24 | -1.89 ± 0.2 |
| UUCGAGCAAUAUUACGUUUC | -3.44 ± 0.35 | -2.37 ± 0.35 |
| UCUUAGCAAUAUUACGUGCA | -1.95 ± 0.12 | -1.07 ± 0.095 |
| GUUAAGCAAUAUUACGCACU | -0.8 ± 0.22 | -1.17 ± 0.23 |
| UGGUAGCAAUAUUACGGGGG | -3.73 ± 0.32 | -2.45 ± 0.33 |
| GUCAAGCAAUAUUACGGAGA | -3.61 ± 0.26 | -3.41 ± 0.39 |
| GAGGAGCAAUAUUACGGGCU | -2.72 ± 0.48 | -1.83 ± 0.29 |
| GUCGAGCAAUAUUACGGUAA | -1.74 ± 0.19 | -2.18 ± 0.19 |
| GUAAAGCAAUAUUACGUAUU | -1.87 ± 0.076 | -1.69 ± 0.1 |
| GGUUAGCAAUAUUACGUGUU | -1.43 ± 0.096 | -0.323 ± 0.098 |
| ACCAAGCAAUAUUACGUCGA | -2.16 ± 0.12 | -1.83 ± 0.1 |
| AGAGAGCAAUAUUACGAUUC | -3.41 ± 0.35 | -1.24 ± 0.32 |
| UUAUAGCAAUAUUACGGUAA | -1.31 ± 0.17 | -0.924 ± 0.17 |
| UAAGAGCAAUAUUACGCAUU | -2.87 ± 0.22 | -2.32 ± 0.26 |
| UGAUAGCAAUAUUACGCUGA | -1.79 ± 0.2 | -0.53 ± 0.12 |
| CCUUAGCAAUAUUACGUUAG | -4.07 ± 0.21 | -2.67 ± 0.26 |
| UAUGAGCAAUAUUACGGUAU | -4.03 ± 0.42 | -1.06 ± 0.24 |
| AGCGAGCAAUAUUACGACGC | -1.92 ± 0.25 | 0.245 ± 0.2 |
| UUCAAGCAAUAUUACGCUCA | -1.42 ± 0.16 | 0.0916 ± 0.2 |
| AUGUAGCAAUAUUACGCACG | -1.02 ± 0.11 | 0.147 ± 0.14 |
| GUAUAGCAAUAUUACGUUAG | -2.87 ± 0.21 | -1.07 ± 0.22 |

| Sequence | self-splicing fitness (ln) (30 °C) | self-splicing fitness (ln) (37 °C) |
| --- | --- | --- |
| AGAAAGCAAUAUUACGUUUC | -3.82 ± 0.15 | -2.09 ± 0.1 |
| UCGUAGCAAUAUUACGUAGU | -3.61 ± 0.25 | -1.99 ± 0.13 |
| ACUCAGCAAUAUUACGCCAU | -3.02 ± 0.17 | -2.28 ± 0.16 |
| CAUUAGCAAUAUUACGAUCG | 0.173 ± 0.082 | 0.274 ± 0.12 |
| CAUCAGCAAUAUUACGGAUU | -0.959 ± 0.062 | -0.143 ± 0.077 |
| AUAGAGCAAUAUUACGUUUG | -1.43 ± 0.11 | -2 ± 0.21 |
| GAUAAGCAAUAUUACGUGUA | -2.1 ± 0.14 | -1.04 ± 0.14 |
| CGAUAGCAAUAUUACGAUUC | -3.87 ± 0.39 | -0.777 ± 0.17 |
| UUGUAGCAAUAUUACGUGGC |  | -2.15 ± 0.47 |
| AUUGAGCAAUAUUACGUUUC |  | -2.57 ± 0.48 |
| GGAGAGCAAUAUUACGGUGC | -3.03 ± 0.12 | -1.57 ± 0.11 |
| CCAAAGCAAUAUUACGCGCC | -3.43 ± 0.21 | -2.71 ± 0.27 |
| ACAGAGCAAUAUUACGUCUA | -3.22 ± 0.33 | -1.73 ± 0.29 |
| CCUGAGCAAUAUUACGUUUU | -3.74 ± 0.23 | -2.81 ± 0.25 |
| ACGAAGCAAUAUUACGUGUU | -2.94 ± 0.07 | -1.81 ± 0.07 |
| GGAAAGCAAUAUUACGAGAG | -4.25 ± 0.26 | -0.533 ± 0.1 |
| UUCCAGCAAUAUUACGUGCA | -1.44 ± 0.1 | -1.11 ± 0.087 |
| AAUGAGCAAUAUUACGUUUA | -3.81 ± 0.35 | -2.21 ± 0.22 |
| AUCUAGCAAUAUUACGCAGU | -2.53 ± 0.18 | -2.09 ± 0.2 |
| CGGAAGCAAUAUUACGAUAA |  | -1.52 ± 0.25 |
| CCGUAGCAAUAUUACGCGGA | -2.85 ± 0.26 | -3.13 ± 0.26 |
| GCAGAGCAAUAUUACGGUGU | -4.3 ± 0.32 | -2.31 ± 0.16 |
| CUAAAGCAAUAUUACGCGGA | -3.85 ± 0.3 | -3.62 ± 0.24 |
| UGGAAGCAAUAUUACGCGAU | -2.02 ± 0.14 | -2.12 ± 0.25 |
| ACAAAGCAAUAUUACGCUCG | -0.887 ± 0.08 | 0.156 ± 0.12 |

| Sequence | self-splicing fitness (ln) (30 °C) | self-splicing fitness (ln) (37 °C) |
| --- | --- | --- |
| GAUAAGCAAUAUUACGUCAG | -4.56 ± 0.32 | -2.5 ± 0.23 |
| ACGGAGCAAUAUUACGAGUC | -3.83 ± 0.33 | -2.64 ± 0.38 |
| CCUCAGCAAUAUUACGCUAU | -4.26 ± 0.43 | -2.22 ± 0.28 |
| AAGAAGCAAUAUUACGCUCU | -3.54 ± 0.24 | -1.37 ± 0.18 |
| GGCGAGCAAUAUUACGGCCC | 0.209 ± 0.31 |  |
| GAUAAGCAAUAUUACGACUG | -1.18 ± 0.2 | 0.14 ± 0.25 |
| AUGUAGCAAUAUUACGUUUA | -2.38 ± 0.13 | -1.86 ± 0.12 |
| UACAAGCAAUAUUACGAAGC | -3.39 ± 0.23 | -2.74 ± 0.26 |
| CAUUAGCAAUAUUACGGUUG | -1.63 ± 0.09 | -0.664 ± 0.11 |
| CUUUAGCAAUAUUACGGACC |  | -1.83 ± 0.41 |
| CGGAAGCAAUAUUACGUCUG | -3.74 ± 0.2 | -2.46 ± 0.19 |
| AAGAAGCAAUAUUACGCUGA | -2.47 ± 0.14 | -2.04 ± 0.18 |
| GAUCAGCAAUAUUACGGUUG | -1.02 ± 0.053 | -0.343 ± 0.073 |
| GACUAGCAAUAUUACGGGUA | -0.752 ± 0.076 | -0.669 ± 0.078 |
| UUUUAGCAAUAUUACGUACA | -2.16 ± 0.15 | -0.143 ± 0.2 |
| AAUAAGCAAUAUUACGAAAG | -3.68 ± 0.27 | -1.37 ± 0.22 |
| AUUGAGCAAUAUUACGAUAA |  | -2.14 ± 0.4 |
| CUAUAGCAAUAUUACGGCGA |  | -0.914 ± 0.47 |
| UGUCAGCAAUAUUACGUUUU | -3.83 ± 0.2 | -2.23 ± 0.14 |
| AUUCAGCAAUAUUACGGCUA | 0.293 ± 0.09 | -0.022 ± 0.084 |
| CUCUAGCAAUAUUACGAUCC | -2.43 ± 0.31 | -2.11 ± 0.3 |
| GGCCAGCAAUAUUACGGACU | -2.24 ± 0.1 | -1.2 ± 0.1 |
| GUCUAGCAAUAUUACGACUG | -2.39 ± 0.23 | -2.73 ± 0.31 |
| GGUUAGCAAUAUUACGAAAU | -1.45 ± 0.11 | -0.492 ± 0.14 |
| ACUGAGCAAUAUUACGUUGG | -4.04 ± 0.2 | -2.17 ± 0.18 |

| Sequence | self-splicing fitness (ln) (30 °C) | self-splicing fitness (ln) (37 °C) |
| --- | --- | --- |
| ACUCAGCAAUAUUACGUUCG | -0.678 ± 0.086 | -0.331 ± 0.11 |
| GAAAAGCAAUAUUACGACCA | -0.386 ± 0.13 | 0.235 ± 0.19 |
| GUUUAGCAAUAUUACGGUAC | -1.22 ± 0.12 | -2.01 ± 0.15 |
| AUCGAGCAAUAUUACGUCCU | -1.18 ± 0.11 | -0.423 ± 0.18 |
| UACGAGCAAUAUUACGCACC | -1.91 ± 0.39 |  |
| CCUUAGCAAUAUUACGCAUC |  | -2.77 ± 0.48 |
| GAAUAGCAAUAUUACGGUUG | -1.27 ± 0.092 | -0.561 ± 0.13 |
| CGAUAGCAAUAUUACGUAGC | -3.25 ± 0.19 | -2.68 ± 0.34 |
| GCACAGCAAUAUUACGACGG | -1.34 ± 0.098 | -0.832 ± 0.13 |
| GAUGAGCAAUAUUACGAGAC | -2.67 ± 0.25 | -1.97 ± 0.3 |
| GGAUAGCAAUAUUACGUUGG | -2.7 ± 0.16 | -2.17 ± 0.22 |
| GUCGAGCAAUAUUACGACUC | -2.05 ± 0.32 | -1.15 ± 0.36 |
| CCCGAGCAAUAUUACGGGGA | -3.49 ± 0.21 | -2.14 ± 0.11 |
| AAGUAGCAAUAUUACGGCUC | -0.15 ± 0.12 | 0.32 ± 0.15 |
| GGCGAGCAAUAUUACGAUUG | -2.49 ± 0.13 | -2.05 ± 0.2 |
| UUUAAGCAAUAUUACGCAAA | -1.59 ± 0.38 | -0.938 ± 0.28 |
| GGGUAGCAAUAUUACGAUCA | -0.0146 ± 0.13 | 0.0752 ± 0.16 |
| AGACAGCAAUAUUACGAAAC | -3.76 ± 0.27 | -2.66 ± 0.34 |
| CGAGAGCAAUAUUACGAUGC |  | -1.63 ± 0.35 |
| ACGCAGCAAUAUUACGAGGU | -3.55 ± 0.17 | -2.27 ± 0.16 |
| AUACAGCAAUAUUACGAACU | -0.142 ± 0.079 | 0.0661 ± 0.099 |
| UGCAAGCAAUAUUACGGGAG | -2.41 ± 0.096 | -1.71 ± 0.098 |
| CGAAAGCAAUAUUACGCAGG | -2.16 ± 0.091 | -1.4 ± 0.093 |
